{"source": "paper PMC8202330", "about": "“Phosphorylation of the LIR Domain of SCOC Modulates ATG8 Binding Affinity and Specificity” (Journal of Molecular Biology, 2021)", "key": {"[1]": {"molecular_target": "SCOC aa 6–18 LIR peptide (human)", "assay": "BLI; biotinylated LIR peptide immobilized on streptavidin biosensor, ATG8 in solution; 25 mM Tris pH 7.5, 150 mM NaCl, 0.5 mM TCEP, 0.1% Tween20, 1 mg/ml BSA; 25 °C; Kd from response against concentration"}, "[2]": {"molecular_target": "SCOC aa 11–25 LIR peptide (human)", "assay": "BLI; biotinylated LIR peptide immobilized on streptavidin biosensor, ATG8 in solution; 25 mM Tris pH 7.5, 150 mM NaCl, 0.5 mM TCEP, 0.1% Tween20, 1 mg/ml BSA; 25 °C; Kd from response against concentration"}, "[3]": {"molecular_target": "SCOC pS12 LIR peptide (human)", "sequence (peptide, as listed by the source)": "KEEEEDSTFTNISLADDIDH", "assay": "BLI; biotinylated LIR peptide immobilized on streptavidin biosensor, ATG8 in solution; 25 mM Tris pH 7.5, 150 mM NaCl, 0.5 mM TCEP, 0.1% Tween20, 1 mg/ml BSA; 25 °C; Kd from response against concentration"}, "[4]": {"molecular_target": "GABARAPL2 (UniProt P60520)", "sequence (P60520 whole entry, looked up)": "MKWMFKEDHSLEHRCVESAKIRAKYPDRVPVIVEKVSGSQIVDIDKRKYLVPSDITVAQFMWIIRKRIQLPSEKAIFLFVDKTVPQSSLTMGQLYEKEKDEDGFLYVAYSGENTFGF", "assay": "bio-layer interferometry, immobilised biotin peptide", "details": "reference: unphosphorylated WT peptide"}, "[5]": {"molecular_target": "LC3A (UniProt Q9H492)", "assay": "bio-layer interferometry, immobilised biotin peptide", "details": "reference: unphosphorylated WT peptide"}, "[6]": {"molecular_target": "LC3B (UniProt Q9GZQ8)", "assay": "bio-layer interferometry, immobilised biotin peptide", "details": "reference: unphosphorylated WT peptide"}, "[7]": {"molecular_target": "GABARAP (UniProt O95166)", "sequence (O95166 whole entry, looked up)": "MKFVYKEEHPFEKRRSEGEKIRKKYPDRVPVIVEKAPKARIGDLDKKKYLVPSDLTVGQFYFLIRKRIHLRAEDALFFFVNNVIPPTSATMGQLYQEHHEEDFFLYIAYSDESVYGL", "assay": "bio-layer interferometry, immobilised biotin peptide", "details": "reference: unphosphorylated WT peptide"}, "[8]": {"molecular_target": "GABARAPL1 (UniProt Q9H0R8)", "sequence (Q9H0R8 whole entry, looked up)": "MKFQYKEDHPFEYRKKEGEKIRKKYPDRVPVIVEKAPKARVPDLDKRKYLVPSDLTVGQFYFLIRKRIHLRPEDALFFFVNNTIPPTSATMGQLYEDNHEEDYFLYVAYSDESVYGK", "assay": "bio-layer interferometry, immobilised biotin peptide", "details": "reference: unphosphorylated WT peptide"}, "[9]": {"molecular_target": "LC3C (UniProt Q9BXW4)", "sequence (Q9BXW4 whole entry, looked up)": "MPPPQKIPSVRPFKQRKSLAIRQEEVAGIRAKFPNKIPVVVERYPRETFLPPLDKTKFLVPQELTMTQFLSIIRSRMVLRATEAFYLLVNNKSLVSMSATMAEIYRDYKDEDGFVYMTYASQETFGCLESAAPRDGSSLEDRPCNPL", "assay": "bio-layer interferometry, immobilised biotin peptide", "details": "reference: unphosphorylated WT peptide"}, "[10]": {"molecular_target": "SCOC LIR peptide phosphorylated at S12 and S18 (BLI) (human)", "assay": "BLI; biotinylated LIR peptide immobilized on streptavidin biosensor, ATG8 in solution; 25 mM Tris pH 7.5, 150 mM NaCl, 0.5 mM TCEP, 0.1% Tween20, 1 mg/ml BSA; 25 °C; Kd from response against concentration"}}}
{"substance": "GABARAPL1 (for BLI) (from UniProt Q9H0R8 1-117) (natural protein)", "values": [{"measurement": "fold decrease in affinity against SCOC WT LIR peptide", "setting": "[1]", "result": 4, "unit": "fold"}, {"measurement": "fold decrease in affinity against SCOC WT LIR peptide", "setting": "[2]", "result": 104, "unit": "fold"}, {"measurement": "fold increase in affinity over SCOC WT LIR peptide", "setting": "[3]", "result": 2, "unit": "fold"}]}
{"substance": "SCOC (isoform 3) LIR domain, 6-25 (from UniProt Q9UIL1-2) pS18 peptide", "values": [{"measurement": "fold change", "setting": "[4]; sites S18", "result": "same"}, {"measurement": "fold change", "setting": "[5]; sites S18", "result": "stronger"}, {"measurement": "fold change", "setting": "[6]; sites S18", "result": "stronger"}, {"measurement": "fold change", "setting": "[7]; sites S18", "result": "same"}, {"measurement": "fold change", "setting": "[8]; sites S18", "result": "same"}, {"measurement": "fold change", "setting": "[9]; sites S18", "result": "stronger"}]}
{"substance": "LC3A (for BLI) (from UniProt Q9H492 1-121) (natural protein)", "values": [{"measurement": "fold increase in affinity over SCOC WT LIR peptide", "setting": "[10]", "result": 17, "unit": "fold"}]}
{"substance": "SCOC (isoform 3) LIR domain, 6-25 (from UniProt Q9UIL1-2) pS12/pT15 peptide", "values": [{"measurement": "fold change", "setting": "[4]; sites S12,T15", "result": "stronger"}, {"measurement": "fold change", "setting": "[5]; sites S12,T15", "result": "stronger"}, {"measurement": "fold change", "setting": "[6]; sites S12,T15", "result": "stronger"}, {"measurement": "fold change", "setting": "[7]; sites S12,T15", "result": "stronger"}, {"measurement": "fold change", "setting": "[8]; sites S12,T15", "result": "stronger"}, {"measurement": "fold change", "setting": "[9]; sites S12,T15", "result": "stronger"}]}
{"substance": "LC3C (for BLI) (from UniProt Q9BXW4 1-126) (natural protein)", "values": [{"measurement": "fold increase in affinity over SCOC WT LIR peptide", "setting": "[10]", "result": 21, "unit": "fold"}]}
{"substance": "SCOC (isoform 3) LIR domain, 6-25 (from UniProt Q9UIL1-2) pS12/pS18 peptide", "values": [{"measurement": "fold change", "setting": "[4]; sites S12,S18", "result": "stronger"}, {"measurement": "fold change", "setting": "[5]; sites S12,S18", "result": "stronger"}, {"measurement": "fold change", "setting": "[6]; sites S12,S18", "result": "stronger"}, {"measurement": "fold change", "setting": "[7]; sites S12,S18", "result": "stronger"}, {"measurement": "fold change", "setting": "[8]; sites S12,S18", "result": "stronger"}, {"measurement": "fold change", "setting": "[9]; sites S12,S18", "result": "stronger"}]}
{"substance": "SCOC (isoform 3) LIR domain, 6-25 (from UniProt Q9UIL1-2) pS12 peptide", "values": [{"measurement": "fold change", "setting": "[4]; sites S12", "result": "stronger"}, {"measurement": "fold change", "setting": "[5]; sites S12", "result": "stronger"}, {"measurement": "fold change", "setting": "[6]; sites S12", "result": "stronger"}, {"measurement": "fold change", "setting": "[7]; sites S12", "result": "stronger"}, {"measurement": "fold change", "setting": "[8]; sites S12", "result": "stronger"}, {"measurement": "fold change", "setting": "[9]; sites S12", "result": "stronger"}]}
{"substance": "SCOC (isoform 3) LIR domain, 6-25 (from UniProt Q9UIL1-2) pT13 peptide", "values": [{"measurement": "binding against the reference", "setting": "[4]; sites T13", "result": "same"}, {"measurement": "binding against the reference", "setting": "[6]; sites T13", "result": "same"}, {"measurement": "binding against the reference", "setting": "[7]; sites T13", "result": "same"}, {"measurement": "binding against the reference", "setting": "[8]; sites T13", "result": "same"}, {"measurement": "binding against the reference", "setting": "[9]; sites T13", "result": "same"}]}
{"substance": "SCOC (isoform 3) LIR domain, 6-25 (from UniProt Q9UIL1-2) pT15 peptide", "values": [{"measurement": "fold change", "setting": "[4]; sites T15", "result": "same"}, {"measurement": "fold change", "setting": "[5]; sites T15", "result": "stronger"}, {"measurement": "fold change", "setting": "[6]; sites T15", "result": "stronger"}, {"measurement": "fold change", "setting": "[7]; sites T15", "result": "same"}, {"measurement": "fold change", "setting": "[8]; sites T15", "result": "same"}, {"measurement": "fold change", "setting": "[9]; sites T15", "result": "stronger"}]}
